In one test the target is LRP6 (Homo sapiens, UniProt O75581). Kind of test: LRP6 folding: western blot of ER and mature LRP6 forms in HEK293 cells with Mesd coexpression. The class given is cell-based. On the set-up: plasmid pCS-Myc-hLRP6 containing the full-length human LRP6 cDNA; HA; expressed in transfected cells. The conditions noted are these: HEK293 cells transiently transfected with LRP6 cDNA and Mesd or MesdΔC cDNA. Here is the method: To examine the expression of the LDLR family members, cells cultured in six-well plates were lysed with 0.5 ml lysis buffer (phosphate-buffered saline containing 1% Triton X-100 and 1 mM PMSF) at 4° C. for 30 minutes. Equal quantities of protein were subjected to SDS-PAGE under non-reducing conditions. Following transfer to Immobilon-P membrane, successive incubations with primary antibody and horseradish peroxidase-conjugated secondary antibody were carried out for 60 minutes at room temperature. The immunoreactive proteins were then detected using the ECL system.
To examine the role of this C-terminal region of Mesd on receptor folding, a Mesd mutant (Mesd_C), which lacks the C-terminal region (amino acids 156-191) but retains the endoplasmic reticulum retention signal (REDL) was generated (FIG. 3A). Next, a potential role for MesdΔC on LRP6 folding was evaluated. HEK293 cells were transiently transfected with cDNA for the LRP6 with cotransfection of control vector, or cDNAs for Mesd or MesdΔC. The steady-state levels of LRP6 were analyzed by western blotting with the anti-MYC antibody (FIG. 5A). […] In FIG. 5A, HEK293 cells were transiently transfected with the indicated cDNAs. Cell lysates were analyzed by SDS-PAGE under reducing conditions and western blotted with anti-FLAG or anti-HA antibodies as indicated.

In another test the test system is Wnt signaling. Nature of the test: Wnt signalling TCF/LEF-Luc assay in HEK293 cells (Wnt3A conditioned medium plus Dkk1). The format is cell-based. The conditions noted are these: Wnt3A conditioned medium plus Dkk1 protein at 10 nM. Here is the method:
(§1) HEK293 cells were plated into six-well plates. For each well, […] of the TOP-[…] luciferase construct (Upstate Biotechnology) was cotransfected with 0.8 μg Mesd-expressing vector, 0.8 μg Mesd mutant-expressing vector, or empty vector. A β-galactosidase-expressing vector (Promega, Madison, Wis.) was included as an internal control for transfection efficiency. After 48 hours, cells were lysed and both luciferase and β-galactosidase activities were determined with enzyme assay kits (Promega). The luciferase activity was determined with a luminometer using the Dual Luciferase Assay system (Promega). Luciferase activity was normalized to the activity of the P-galactosidase.

Test [1] relates to TCF/LEF transcriptional activity. Kind of test: TOP-FLASH luciferase reporter assay in HEK293 cells cotransfected with LRP6 and Mesd constructs. The format is cell-based. Particulars: luciferase 48 hours after transfection. Here is the method:
as §1
Activation of canonical Wnt signaling leads to the stabilization of P-catenin and regulation of gene transcription through transcription regulators including lymphoid-enhancing factor (LEF)-1 and T-cell factors (TCF). The TOP-FLASH luciferase reporter contains TCF-binding sites and can be directly activated by the P-catenin/TCF complex (Korinek et al., 1997). LRP6 is cell surface receptor, and only the mature receptor can reach the cell surface and modulate Wnt signaling (Cong et al., 2004). Next examined was the effect of Mesd_C on Wnt signaling using the TOP-FLASH luciferase reporter assay in HEK293 cells. […] The luciferase activity was measured 48 hours after transfection. […]

The next test concerns cytosolic β-catenin. Nature of the test: Cytosolic β-catenin level by western blotting in LRP6-transduced HT1080 cells. The conditions noted are these: 0.5 to 5 nM Mesd, 2 hours at 37° C. (data not shown). The format is cell-based, human. The procedure:
[…] After washing in ice-cold PBS, cells were collected and homogenized in a glass Dounce homogenizer in buffer consisting of 100 mM Tris-HCl pH 7.4, 140 mM NaCl, 2 mM DTT, 2 mM PMSF, and 1X Complete™ protease inhibitors (500 μl/well). The homogenate was centrifuged for 10 minutes at 500 g, and the supernatant was further centrifuged at 100,000 g at 4° C. for 90 minutes. The resulting supernatant was designated the cytosolic fraction. The β-catenin levels were then examined by western blotting using β-catenin-specific antibody from Cell Signaling Technology. The immunoreactive proteins were detected using the ECL system. Films showing immunoreactive bands were scanned with a Kodak Digital Science DC120 Zoom Digital Camera and band intensities were analyzed with Kodak Digital Science 1D Image Analysis Software.
β-catenin is a key molecule in the Wnt/β-catenin signaling pathway. A cytosolic pool of β-catenin interacts with DNA-binding proteins and participates in Wnt signal transduction (Hinck, L., J. Cell Biol. 125, 1327-13401994; Gottardi, C. J., J. Cell Biol. 153: 1049-1060, 2001; Klingelhofer, J., Oncogene 22, 1181-1188, 2003). To determine whether Mesd binding to cell surface LRP6 directly regulates Wnt signaling, the effects of Mesd binding on cytosolic P-catenin levels in HT1080-LRP6 cells were studied. […]

Chain of LRP6 (O75581 20-1613): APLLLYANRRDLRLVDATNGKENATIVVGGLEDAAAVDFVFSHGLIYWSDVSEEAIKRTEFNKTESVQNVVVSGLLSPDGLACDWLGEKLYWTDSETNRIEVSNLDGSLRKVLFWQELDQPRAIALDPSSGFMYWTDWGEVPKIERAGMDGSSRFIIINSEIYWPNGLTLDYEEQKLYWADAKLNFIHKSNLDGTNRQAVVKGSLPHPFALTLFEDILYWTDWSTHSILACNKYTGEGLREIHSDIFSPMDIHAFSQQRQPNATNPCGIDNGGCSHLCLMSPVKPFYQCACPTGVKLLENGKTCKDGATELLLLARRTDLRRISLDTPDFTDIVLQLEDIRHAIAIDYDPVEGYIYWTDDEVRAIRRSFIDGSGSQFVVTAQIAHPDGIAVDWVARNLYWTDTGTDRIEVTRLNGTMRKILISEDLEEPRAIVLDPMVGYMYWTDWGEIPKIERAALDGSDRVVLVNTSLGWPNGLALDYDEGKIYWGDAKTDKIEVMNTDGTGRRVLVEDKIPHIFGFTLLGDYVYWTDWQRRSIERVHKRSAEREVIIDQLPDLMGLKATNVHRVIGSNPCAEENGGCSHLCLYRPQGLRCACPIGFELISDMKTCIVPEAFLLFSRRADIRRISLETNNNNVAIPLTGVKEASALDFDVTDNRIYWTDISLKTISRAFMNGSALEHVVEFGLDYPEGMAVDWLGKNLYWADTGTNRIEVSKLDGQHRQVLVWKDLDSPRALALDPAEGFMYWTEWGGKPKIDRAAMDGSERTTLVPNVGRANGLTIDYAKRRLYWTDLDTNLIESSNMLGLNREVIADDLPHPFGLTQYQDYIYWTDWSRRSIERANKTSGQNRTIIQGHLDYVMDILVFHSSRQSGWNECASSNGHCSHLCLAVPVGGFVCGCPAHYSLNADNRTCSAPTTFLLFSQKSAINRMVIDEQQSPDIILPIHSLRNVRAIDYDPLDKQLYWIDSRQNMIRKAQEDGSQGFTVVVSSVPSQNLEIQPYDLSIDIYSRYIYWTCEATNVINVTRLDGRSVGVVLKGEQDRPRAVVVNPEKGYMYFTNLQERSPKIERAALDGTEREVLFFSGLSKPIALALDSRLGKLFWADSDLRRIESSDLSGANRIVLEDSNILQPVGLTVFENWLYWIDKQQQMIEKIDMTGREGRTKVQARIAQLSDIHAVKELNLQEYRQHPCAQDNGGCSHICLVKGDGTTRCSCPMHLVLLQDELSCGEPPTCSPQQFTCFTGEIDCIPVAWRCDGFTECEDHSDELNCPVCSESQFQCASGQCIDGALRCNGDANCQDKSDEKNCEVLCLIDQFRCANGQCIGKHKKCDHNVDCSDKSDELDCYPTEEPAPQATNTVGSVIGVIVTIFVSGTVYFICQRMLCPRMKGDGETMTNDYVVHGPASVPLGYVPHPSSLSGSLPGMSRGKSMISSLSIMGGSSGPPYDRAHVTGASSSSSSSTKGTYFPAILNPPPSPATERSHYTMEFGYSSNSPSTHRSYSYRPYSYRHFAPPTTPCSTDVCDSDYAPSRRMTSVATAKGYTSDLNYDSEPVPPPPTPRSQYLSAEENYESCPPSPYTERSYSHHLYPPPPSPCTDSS

B1: Mesd: recombinant wild-type mouse Mesd, polyhistidine tail at the N-terminus, lacks the signal peptide, expressed in E. coli (protein)
chain: ADTPGEATPPPRKKKDIRDYNDADMARLLEQWEKDDDIEEGDLPEHKRPSAPIDFSKLDPGKPESILKMTKKGKTLMMFVTVSGNPTEKETEEITSLWQGSLFNANYDVQRFIVGSDRAIFMLRDGSYAWEIKDFLVSQDRCAEVTLEGQMYPGKGGGSKEKNKTKPEKAKKKEGDRKPRASKEDNRAGSRREDL
modifications: left off: small tags and cut ends
notes: recombinant wild-type mouse Mesd, polyhistidine tail at the N-terminus, lacks the signal peptide, expressed in E. coli
As to B1, the “Amount of the mature form of LRP6 on coexpression” value with LRP6 is “significantly increased”. Besides, the “Restoring of Wnt signaling inhibited by Dkk1 (luciferase activity)” value with Wnt signaling is listed as “at least partially restoring Wnt signaling”. In test [1], the “TCF/LEF transcriptional activity (TOP-FLASH) on coexpression” value is reported as “significantly enhanced”. In the test with cytosolic β-catenin, the “Change in cytosolic β-catenin levels” value was “no significant change”.

The record behind these values is patent publication US20080227698A1, “OLIGOPEPTIDES FOR TREATMENT OF OSTEOPOROSIS AND OTHER BONE DISEASES AND METHODS THEREOF” (Washington University, priority 2005, published 2008).
